Test results as given in patent US20240034774A1 (Gilead, published 2024).
Residue numbers refer to the chain shown, from its start.

B1: 1.9.1-1 (antibody, human IgG1, kappa)
heavy: QVQLVQSGAEVKKPGASVRVSCKASGYNIRDYFIHWWRQAPGQGLQWVGWINPKTGQPNNPRQFQGRVSLTRHASWDFDTFSFYMDLKALRSDDTAVYFCARQRSDYWDFDVWGSGTQVTVSSASTKGPSVFPLAPSSKSTSGGTAALGCLVKDYFPEPVTVSWNSGALTSGVHTFPAVLQSSGLYSLSSVVTVPSSSLGTQTYICNVNHKPSNTKVDKKVEPKSCDKTHTCPPCPAPELLAGPDVFLFPPKPKDTLMISRTPEVTCVVVDVSHEDPEVKFNWYVDGVEVHNAKTKPREEQYNSTYRVVSVLTVLHQDWLNGKEYKCKVSNKALPLPEEKTISKAKGQPREPQVYTLPPSREEMTKNQVSLTCLVKGFYPSDIAVEWESNGQPENNYKTTPPVLDSDGSFFLYSKLTVDKSRWQQGNVFSCSVLHEALHSHYTQKSLSLSPGK
light: DIQMTQSPSSLSASVGDTVTITCQANGYLNWYQQRRGKAPKLLIYDGSKLERGVPSRFSGRRWGQEYNLTINNLQPEDIATYFCQVYEFVVPGTRLDLKRTVAAPSVFIFPPSDEQLKSGTASVVCLLNNFYPREAKVQWKVDNALQSGNSQESVTEQDSKDSTYSLSSTLTLSKADYEKHKVYACEVTHQGLSSPVTKSFNRGEC
B2: 1.17.1-1 (antibody, human IgG1, kappa)
heavy: B1 heavy with V5L, E10A, K12T, K23E, T55A
light: B1 light
B3: 1.28.1-1 (antibody, human IgG1, kappa)
heavy: B1 heavy with V5L, E10A, K12T, K23E, V97T, S105T
light: B1 light
B4: 1.12.15-1 (antibody, human IgG1, kappa)
heavy: B1 heavy with V5L, E10A, K12T, K23E, W37V
light: B1 light with V90F
B5: 1.10.1-1 (antibody, human IgG1, kappa)
heavy: B1 heavy with V5L, E10A, K12T, K23E, I34M
light: B1 light
B6: 1.29.1-1 (antibody, human IgG1, kappa)
heavy: B1 heavy with V5L, E10A, K12T, K23E, S115Q
light: B1 light
B7: 1.25.1-1 (antibody, human IgG1, kappa)
heavy: B1 heavy with V5L, E10A, K12T, K23E, K88S, A89R
light: B1 light
B8: 1.27.1-1 (antibody, human IgG1, kappa)
heavy: B1 heavy with V5L, E10A, K12T, K23E, S105T
light: B1 light
B9: 1.11.1-1 (antibody, human IgG1, kappa)
heavy: B1 heavy with V5L, E10A, K12T, K23E, I34M, F83A
light: B1 light
B10: 1.16.1-1 (antibody, human IgG1, kappa)
heavy: B1 heavy with V5L, E10A, K12T, K23E, T55G
light: B1 light
B11: 1.18.1-1 (antibody, human IgG1, kappa)
heavy: B1 heavy with V5L, E10A, K12T, K23E, T55H
light: B1 light
B12: 1.24.1-1 (antibody, human IgG1, kappa)
heavy: B1 heavy with V5L, E10A, K12T, K23E, Y84S
light: B1 light
B13: 1.19.1-1 (antibody, human IgG1, kappa)
heavy: B1 heavy with V5L, E10A, K12T, K23E, S69T
light: B1 light
B14: 1.12.17-1 (antibody, human IgG1, kappa, V domains shown)
VH: QVQLLQSGAAVTKPGASVRVSCEASGYNIRDYFIHWVRQAPGQGLQWVGWINPKTGQPNNPRQFQGRVSLTRHASWDFDTFSFYMDLKALRSDDTAVYFCARQRSDYWDFDVWGSGTQVTVSS
VL: DIQMTQSPSSLSASVGDTVTITCQANGYLNWYQQRRGKAPKLLIYDGSKLERGVPSRFSGRRWGQEYNLTINNLQPEDIATYFCQVYEFFGPGTRLDLKR
B15: 1.14.17-1 (antibody, human IgG1, kappa, V domains shown)
VH: B14 VH with I34M, F83A
VL: B14 VL
B16: 1.15.1-1 (antibody, human IgG1, kappa)
heavy: B1 heavy with V5L, E10A, K12T, K23E, T55W
light: B1 light
B17: 1.31.1-1 (antibody, human IgG1, kappa)
heavy: B1 heavy with K12T, K23E, V97T
light: B1 light
B18: 1.30.1-1 (antibody, human IgG1, kappa)
heavy: B1 heavy with V5L, E10A, K12T, K23E, Q118M
light: B1 light
B19: 1.13.17-1 (antibody, human IgG1, kappa, V domains shown)
VH: B14 VH with I34M
VL: B14 VL
B20: 1.13.15-1 (antibody, human IgG1, kappa)
heavy: B1 heavy with V5L, E10A, K12T, K23E, I34M, W37V
light: B1 light with V90F
B21: 1.21.1-1 (antibody, human IgG1, kappa)
heavy: B1 heavy with V5L, E10A, K12T, K23E, H73D
light: B1 light
B22: 1.20.1-1 (antibody, human IgG1, kappa)
heavy: B1 heavy with V5L, E10A, K12T, K23E, S69T, L70M
light: B1 light
B23: 1.26.1-1 (antibody, human IgG1, kappa)
heavy: B1 heavy with V5L, E10A, K12T, K23E, V97T
light: B1 light

Molecular target: BSA (UniProt P02769 25-607)
Test: single-point ELISA, BSA control

| Binder | ELISA A450 [A450] |
| --- | --- |
| B1 | 0.06 |
| B2 | 0.06 |
| B3 | 0.06 |
| B4 | 0.06 |
| B5 | 0.06 |
| B6 | 0.06 |
| B7 | 0.06 |
| B8 | 0.07 |
| B9 | 0.09 |
| B10 | 0.07 |
| B11 | 0.07 |
| B12 | 0.06 |
| B13 | 0.06 |
| B14 | 0.06 |
| B15 | 0.1 |
| B16 | 0.06 |
| B17 | 0.06 |
| B18 | 0.06 |
| B19 | 0.06 |
| B20 | 0.06 |
| B21 | 0.07 |
| B22 | 0.06 |
| B23 | 0.06 |

Molecular target: gp120 Bal (HIV (Bal))
Test: single-point ELISA at EC50 conc. of A-1

| Binder | ELISA A450 [A450] |
| --- | --- |
| B1 | 1.08 |
| B2 | 0.84 |
| B3 | 1.05 |
| B4 | 0.69 |
| B5 | 0.95 |
| B6 | 1.03 |
| B7 | 1.07 |
| B8 | 0.86 |
| B9 | 0.93 |
| B10 | 0.92 |
| B11 | 0.97 |
| B12 | 0.98 |
| B13 | 0.85 |
| B14 | 0.9 |
| B15 | 0.89 |
| B16 | 0.87 |
| B17 | 0.82 |
| B18 | 0.81 |
| B19 | 1.02 |
| B20 | 0.7 |
| B21 | 0.87 |
| B22 | 0.89 |
| B23 | 0.81 |

Molecular target: gp120 SHIV SF162 P3 (SHIV SF162 P3)
Test: single-point ELISA at EC50 conc. of A-1

| Binder | ELISA A450 [A450] |
| --- | --- |
| B1 | 1.23 |
| B2 | 0.31 |
| B3 | 0.99 |
| B4 | 0.53 |
| B5 | 1.03 |
| B6 | 0.98 |
| B7 | 1.03 |
| B8 | 0.86 |
| B9 | 0.57 |
| B10 | 0.9 |
| B11 | 1.36 |
| B12 | 1.09 |
| B13 | 0.96 |
| B14 | 0.75 |
| B15 | 0.24 |
| B16 | 1.24 |
| B17 | 0.87 |
| B18 | 1.03 |
| B19 | 0.69 |
| B20 | 0.52 |
| B21 | 0.82 |
| B22 | 0.91 |
| B23 | 0.94 |

Molecular target: gp120 CAAN (HIV (CAAN))
Test: single-point ELISA at EC50 conc. of A-1

| Binder | ELISA A450 [A450] |
| --- | --- |
| B1 | 0.98 |
| B2 | 0.7 |
| B3 | 0.99 |
| B4 | 0.63 |
| B5 | 0.94 |
| B6 | 1.08 |
| B7 | 1.16 |
| B8 | 0.86 |
| B9 | 0.75 |
| B10 | 0.87 |
| B11 | 1.18 |
| B12 | 0.9 |
| B13 | 0.93 |
| B14 | 0.84 |
| B15 | 0.43 |
| B16 | 1.38 |
| B17 | 0.92 |
| B18 | 1.05 |
| B19 | 0.78 |
| B20 | 0.6 |
| B21 | 0.77 |
| B22 | 0.8 |
| B23 | 1 |
